Kd data for 3 molecules are collected here from article PMC3472097 (Structure (London, England : 1993), 2012).

For the assay, the target named is protein phosphatase 1 alpha (PP1α), residues 7-330, recombinant (UniProt P62136 7-330). As to the kind of experiment: ITC.
protein phosphatase 1 alpha (PP1α), residues 7-330, recombinant, sequence (P62136 7-330): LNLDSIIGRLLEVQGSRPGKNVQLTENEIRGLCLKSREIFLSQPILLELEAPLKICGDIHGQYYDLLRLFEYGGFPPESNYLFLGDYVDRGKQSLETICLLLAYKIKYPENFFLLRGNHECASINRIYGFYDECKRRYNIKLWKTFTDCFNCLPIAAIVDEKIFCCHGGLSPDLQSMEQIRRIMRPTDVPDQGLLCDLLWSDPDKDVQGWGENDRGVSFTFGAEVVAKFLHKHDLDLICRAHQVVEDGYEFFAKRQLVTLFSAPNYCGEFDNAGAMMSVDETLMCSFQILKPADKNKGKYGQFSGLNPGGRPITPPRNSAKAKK

B1: NIPP1 PP1-binding domain, residues 158-216 (domain or fragment, UniProt Q12972 158-216, looked up)
chain: EEETELDNLTEFNTAHNKRISTLTIEEGNLDIQRPKRKRKNSRVTFSEDDEIINPEDVD
For orientation: Kd means the equilibrium constant for the complex coming apart. Take B1: the Kd came to 104 nM.

B2: NIPP1 PP1-binding domain, residues 144-225 (domain or fragment, UniProt Q12972 144-225, looked up)
chain: GGEDDELKGLLGLPEEETELDNLTEFNTAHNKRISTLTIEEGNLDIQRPKRKRKNSRVTFSEDDEIINPEDVDPSVGRFRNM
With B2, the Kd stood at 73 nM.

B3: nuclear inhibitor of PP1 (NIPP1), residues 1-225 (FHA domain and PP1-binding domain) (domain or fragment, UniProt Q12972 1-225, looked up)
chain: MAAAANSGSSLPLFDCPTWAGKPPPGLHLDVVKGDKLIEKLIIDEKKYYLFGRNPDLCDFTIDHQSCSRVHAALVYHKHLKRVFLIDLNSTHGTFLGHIRLEPHKPQQIPIDSTVSFGASTRAYTLREKPQTLPSAVKGDEKMGGEDDELKGLLGLPEEETELDNLTEFNTAHNKRISTLTIEEGNLDIQRPKRKRKNSRVTFSEDDEIINPEDVDPSVGRFRNM
In the case of B3, the Kd was determined as 17.8 nM.
